Results taken from publication PMC9638933.

How the values were obtained:
Kumin;LIG = Kumin;LIG (Mycobacterium …, UniProt P9WKD9;P9WNV3 1-259;454-759, |); experiment: EMSA; supershift; EMSA: 50 mM Tris-HCl pH 8.0, 50 mM NaCl, 1 mM DTT, 5 mM MgCl2, 4% glycerol, 0.025 mg/ml BSA, 10 nM DNA, 30 C 20 min; FP: 10 mM Tris-HCl pH 8, 10 mM NaCl, 10% glycerol, 1 mM TCEP, 50 nM DNA, 30 C; ternary EMSA: 20 mM Tris-HCl pH 8.0, 5 mM MgCl2, 5% glycerol, 37 C; bridging: 20 mM Tris-HCl pH 7.5, 50 mM KCl, 5 mM EDTA, 1 mM DTT, 5% glycerol, 40 ug/ml BSA, room temperature; conditions: protein: recombinant;recombinant; tags: His (Ni-NTA purified; pMCSG7);His (Ni-NTA purified); chain copies: 2;1; label: 5' 6-FAM on strand 1; blunt
Chain of Kumin;LIG (P9WKD9 1-259, chain 1 of 2): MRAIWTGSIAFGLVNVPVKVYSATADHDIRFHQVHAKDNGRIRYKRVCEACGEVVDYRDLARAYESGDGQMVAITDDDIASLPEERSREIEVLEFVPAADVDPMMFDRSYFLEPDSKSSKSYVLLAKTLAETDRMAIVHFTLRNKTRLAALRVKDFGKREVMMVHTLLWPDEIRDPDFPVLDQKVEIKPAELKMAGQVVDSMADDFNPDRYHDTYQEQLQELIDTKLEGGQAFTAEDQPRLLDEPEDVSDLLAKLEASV
Chain of Kumin;LIG (P9WNV3 454-759, chain 2 of 2): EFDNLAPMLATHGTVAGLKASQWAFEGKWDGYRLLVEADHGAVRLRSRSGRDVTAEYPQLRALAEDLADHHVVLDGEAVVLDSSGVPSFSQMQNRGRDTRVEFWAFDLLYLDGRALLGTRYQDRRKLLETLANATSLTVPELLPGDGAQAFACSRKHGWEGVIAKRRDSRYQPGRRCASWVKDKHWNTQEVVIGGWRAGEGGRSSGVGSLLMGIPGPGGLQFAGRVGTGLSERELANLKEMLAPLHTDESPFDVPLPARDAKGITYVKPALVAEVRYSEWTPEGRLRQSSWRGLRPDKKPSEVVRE

Kucore;POL = Kucore;POL (Mycobacterium …, UniProt P9WKD9;P9WNV3 1-238;1-287, |); experiment: as above; conditions: protein: recombinant;recombinant; tags: His (Ni-NTA purified; pMCSG7);His (Ni-NTA purified); chain copies: 2;1; label: 5' 6-FAM on strand 1; blunt
Chain of Kucore;POL (P9WKD9 1-238, chain 1 of 2): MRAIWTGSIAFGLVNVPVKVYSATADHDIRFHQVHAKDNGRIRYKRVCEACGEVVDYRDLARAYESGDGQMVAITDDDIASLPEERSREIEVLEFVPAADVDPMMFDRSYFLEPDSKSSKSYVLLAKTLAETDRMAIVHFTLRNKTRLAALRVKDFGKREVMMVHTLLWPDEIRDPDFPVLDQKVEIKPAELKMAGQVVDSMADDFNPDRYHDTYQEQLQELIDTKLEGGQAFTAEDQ
Chain of Kucore;POL (P9WNV3 1-287, chain 2 of 2): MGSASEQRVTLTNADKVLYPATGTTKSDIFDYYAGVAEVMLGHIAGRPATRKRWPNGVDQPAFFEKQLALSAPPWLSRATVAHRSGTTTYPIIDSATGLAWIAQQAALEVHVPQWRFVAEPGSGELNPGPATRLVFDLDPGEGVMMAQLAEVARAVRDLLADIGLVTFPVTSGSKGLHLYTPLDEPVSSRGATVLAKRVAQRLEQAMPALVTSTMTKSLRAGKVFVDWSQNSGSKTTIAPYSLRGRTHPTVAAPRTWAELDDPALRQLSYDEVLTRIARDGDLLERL

KuWT;LIG = KuWT;LIG (Mycobacterium …, UniProt P9WKD9;P9WNV3 1-273;454-759, |); experiment: as above; conditions: protein: recombinant;recombinant; tags: His (Ni-NTA purified; pMCSG7);His (Ni-NTA purified); chain copies: 2;1; label: 5' 6-FAM on strand 1; blunt
Chain of KuWT;LIG (P9WKD9 whole entry, chain 1 of 2): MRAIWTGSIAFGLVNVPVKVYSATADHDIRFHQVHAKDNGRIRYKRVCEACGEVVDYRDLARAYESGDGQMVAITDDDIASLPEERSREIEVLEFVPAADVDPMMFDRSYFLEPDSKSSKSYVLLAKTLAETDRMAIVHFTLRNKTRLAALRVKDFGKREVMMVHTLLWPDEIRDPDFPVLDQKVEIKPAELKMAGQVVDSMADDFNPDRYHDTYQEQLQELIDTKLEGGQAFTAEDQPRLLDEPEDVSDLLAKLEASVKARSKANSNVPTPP
Chain of KuWT;LIG (P9WNV3 454-759, chain 2 of 2): as the sequence (P9WNV3 454-759, chain 2 of 2) above

Kucore;LigD = Kucore;LigD (Mycobacterium …, UniProt P9WKD9;P9WNV3 1-238;1-759, |); experiment: EMSA; 10 uM Ku, 1 uM LigD; supershift; EMSA: 50 mM Tris-HCl pH 8.0, 50 mM NaCl, 1 mM DTT, 5 mM MgCl2, 4% glycerol, 0.025 mg/ml BSA, 10 nM DNA, 30 C 20 min; FP: 10 mM Tris-HCl pH 8, 10 mM NaCl, 10% glycerol, 1 mM TCEP, 50 nM DNA, 30 C; ternary EMSA: 20 mM Tris-HCl pH 8.0, 5 mM MgCl2, 5% glycerol, 37 C; bridging: 20 mM Tris-HCl pH 7.5, 50 mM KCl, 5 mM EDTA, 1 mM DTT, 5% glycerol, 40 ug/ml BSA, room temperature; conditions: protein: recombinant;recombinant; tags: His (Ni-NTA purified; pMCSG7);His (Ni-NTA purified; pMCSG7); chain copies: 2;1; label: 5' 6-FAM on strand 1; blunt
Chain of Kucore;LigD (P9WKD9 1-238, chain 1 of 2): as the sequence (P9WKD9 1-238, chain 1 of 2) above
Chain of Kucore;LigD (P9WNV3 whole entry, chain 2 of 2): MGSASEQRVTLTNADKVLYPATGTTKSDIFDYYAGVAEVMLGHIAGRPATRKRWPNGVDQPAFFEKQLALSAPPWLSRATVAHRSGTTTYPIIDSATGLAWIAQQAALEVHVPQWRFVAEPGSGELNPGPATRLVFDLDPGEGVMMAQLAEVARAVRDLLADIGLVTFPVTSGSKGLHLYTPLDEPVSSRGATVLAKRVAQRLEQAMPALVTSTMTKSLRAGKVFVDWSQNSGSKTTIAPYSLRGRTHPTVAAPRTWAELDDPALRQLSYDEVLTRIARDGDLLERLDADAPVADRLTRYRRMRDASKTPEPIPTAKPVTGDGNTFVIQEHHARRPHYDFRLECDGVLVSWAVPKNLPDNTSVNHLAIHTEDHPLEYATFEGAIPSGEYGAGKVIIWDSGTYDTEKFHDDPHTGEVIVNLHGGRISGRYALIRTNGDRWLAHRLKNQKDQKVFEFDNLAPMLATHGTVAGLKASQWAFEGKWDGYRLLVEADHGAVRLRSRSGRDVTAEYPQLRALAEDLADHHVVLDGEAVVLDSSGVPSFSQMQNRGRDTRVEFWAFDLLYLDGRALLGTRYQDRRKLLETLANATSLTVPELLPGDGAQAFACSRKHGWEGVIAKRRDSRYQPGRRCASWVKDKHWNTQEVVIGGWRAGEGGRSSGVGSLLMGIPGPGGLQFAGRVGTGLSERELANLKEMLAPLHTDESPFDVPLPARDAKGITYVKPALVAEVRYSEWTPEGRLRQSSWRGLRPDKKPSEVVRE

KuWT;LigD = KuWT;LigD (Mycobacterium …, UniProt P9WKD9;P9WNV3 1-273;1-759, |); experiment: as above; conditions: protein: recombinant;recombinant; tags: His (Ni-NTA purified; pMCSG7);His (Ni-NTA purified; pMCSG7); chain copies: 2;1; label: 5' 6-FAM on strand 1; blunt
Chain of KuWT;LigD (P9WKD9 whole entry, chain 1 of 2): as the sequence (P9WKD9 whole entry, chain 1 of 2) above
Chain of KuWT;LigD (P9WNV3 whole entry, chain 2 of 2): as the sequence (P9WNV3 whole entry, chain 2 of 2) above

Kumin;LigD = Kumin;LigD (Mycobacterium …, UniProt P9WKD9;P9WNV3 1-259;1-759, |); experiment: as above; conditions: protein: recombinant;recombinant; tags: His (Ni-NTA purified; pMCSG7);His (Ni-NTA purified; pMCSG7); chain copies: 2;1; label: 5' 6-FAM on strand 1; blunt
Chain of Kumin;LigD (P9WKD9 1-259, chain 1 of 2): as the sequence (P9WKD9 1-259, chain 1 of 2) above
Chain of Kumin;LigD (P9WNV3 whole entry, chain 2 of 2): as the sequence (P9WNV3 whole entry, chain 2 of 2) above

Measured: binding result

B1: 40 bp dsDNA (dsDNA)
DNA 1: CAGGGTAAGTGTGGAGGTGTAGGGAAGGGAATGTTGTCTG
DNA 2: CAGACAACATTCCCTTCCCTACACCTCCACACTTACCCTG
binds: Kumin;LIG | Kucore;POL | KuWT;LIG | Kucore;LigD | KuWT;LigD | Kumin;LigD
